Assay results: patent publication US20250320252A1 (Scripps Research, published 2025)
Bridge positions count the residues as written; N and C are the ends. Square brackets hold non-standard residues; d marks the D form. Ends that are not written are not given here. C20L5A = not defined here; Aib = CC(C)(N)C(=O)O

Assays:
Experiment in all cases: cell-based or functional assay
[1] = biological target: T1, human GIP receptor (human, UniProt P48546 22-466)
T1 sequence (looked up): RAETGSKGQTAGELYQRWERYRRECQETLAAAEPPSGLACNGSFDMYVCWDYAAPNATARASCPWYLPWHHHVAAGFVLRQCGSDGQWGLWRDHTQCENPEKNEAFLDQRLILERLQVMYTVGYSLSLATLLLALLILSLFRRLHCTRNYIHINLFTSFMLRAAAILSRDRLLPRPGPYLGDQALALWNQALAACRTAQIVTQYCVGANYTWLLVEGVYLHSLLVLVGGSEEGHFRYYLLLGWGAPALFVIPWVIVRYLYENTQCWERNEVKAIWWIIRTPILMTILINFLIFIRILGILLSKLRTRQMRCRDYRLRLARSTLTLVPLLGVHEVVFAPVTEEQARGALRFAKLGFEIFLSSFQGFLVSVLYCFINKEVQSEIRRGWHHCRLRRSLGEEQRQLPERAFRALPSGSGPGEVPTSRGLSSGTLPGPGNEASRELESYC

[2] = biological target: T2, mouse GLP1R (mouse, UniProt O35659 22-463)
T2 sequence (looked up): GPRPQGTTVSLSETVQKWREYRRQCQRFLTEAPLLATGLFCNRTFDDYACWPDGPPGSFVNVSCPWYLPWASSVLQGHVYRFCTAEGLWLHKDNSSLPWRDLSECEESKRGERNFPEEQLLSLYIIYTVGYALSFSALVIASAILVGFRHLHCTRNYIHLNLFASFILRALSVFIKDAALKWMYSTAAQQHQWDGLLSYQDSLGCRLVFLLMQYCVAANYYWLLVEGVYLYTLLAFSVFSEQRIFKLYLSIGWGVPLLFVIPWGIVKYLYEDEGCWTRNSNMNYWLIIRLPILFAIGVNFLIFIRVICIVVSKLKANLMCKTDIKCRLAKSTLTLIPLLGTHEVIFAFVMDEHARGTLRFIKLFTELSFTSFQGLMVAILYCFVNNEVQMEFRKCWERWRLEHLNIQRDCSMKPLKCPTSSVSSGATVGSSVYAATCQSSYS

[3] = biological target: cynomolgus monkey GLP1R (cynomolgus monkey, UniProt F8V479 24-463)
[4] = biological target: T3, dog GLP1R (dog, UniProt A0A8I3NUR9 25-464)
T3 sequence: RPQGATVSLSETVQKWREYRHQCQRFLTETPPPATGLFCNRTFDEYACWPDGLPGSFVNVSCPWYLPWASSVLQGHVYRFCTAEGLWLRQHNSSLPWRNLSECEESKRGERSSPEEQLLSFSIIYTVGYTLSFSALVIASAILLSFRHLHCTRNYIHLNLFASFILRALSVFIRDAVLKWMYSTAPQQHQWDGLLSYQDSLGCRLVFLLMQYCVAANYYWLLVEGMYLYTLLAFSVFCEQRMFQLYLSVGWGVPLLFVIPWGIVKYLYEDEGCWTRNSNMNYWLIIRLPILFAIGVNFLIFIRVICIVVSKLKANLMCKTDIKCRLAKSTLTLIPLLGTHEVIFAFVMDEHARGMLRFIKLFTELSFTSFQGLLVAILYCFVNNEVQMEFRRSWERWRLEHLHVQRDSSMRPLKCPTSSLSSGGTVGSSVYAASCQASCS

[5] = biological target: T4, mouse GIPR (mouse, UniProt Q0P543 19-460)
T4 sequence (looked up): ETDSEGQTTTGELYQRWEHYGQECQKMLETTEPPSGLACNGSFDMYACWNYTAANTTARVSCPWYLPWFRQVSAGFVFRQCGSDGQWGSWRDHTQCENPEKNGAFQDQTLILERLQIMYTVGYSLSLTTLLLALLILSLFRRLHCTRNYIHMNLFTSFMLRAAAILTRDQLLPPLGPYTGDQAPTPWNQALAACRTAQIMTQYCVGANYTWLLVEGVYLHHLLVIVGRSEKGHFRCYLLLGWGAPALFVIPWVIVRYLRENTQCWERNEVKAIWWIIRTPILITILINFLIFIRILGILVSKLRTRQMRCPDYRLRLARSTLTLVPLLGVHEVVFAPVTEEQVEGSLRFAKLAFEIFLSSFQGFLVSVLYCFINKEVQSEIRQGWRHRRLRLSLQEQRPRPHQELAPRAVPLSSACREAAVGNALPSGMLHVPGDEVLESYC

[6] = biological target: T5, cynomolgus monkey GIPR (cynomolgus monkey, UniProt A0A2K5VD75 22-466)
T5 sequence: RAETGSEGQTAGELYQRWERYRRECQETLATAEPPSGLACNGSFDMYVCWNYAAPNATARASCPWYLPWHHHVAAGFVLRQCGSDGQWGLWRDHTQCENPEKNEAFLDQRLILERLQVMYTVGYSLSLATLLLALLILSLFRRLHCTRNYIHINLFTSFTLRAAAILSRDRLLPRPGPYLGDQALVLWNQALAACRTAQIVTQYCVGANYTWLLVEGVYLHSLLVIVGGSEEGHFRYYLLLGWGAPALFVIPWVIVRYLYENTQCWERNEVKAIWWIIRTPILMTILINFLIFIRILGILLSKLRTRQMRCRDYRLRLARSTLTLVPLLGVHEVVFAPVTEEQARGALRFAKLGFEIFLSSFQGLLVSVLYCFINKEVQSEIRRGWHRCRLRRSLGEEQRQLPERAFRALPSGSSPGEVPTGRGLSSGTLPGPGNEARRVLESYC

Binder: Y[Aib]EGTFTSDYSIYLDKCAA[Aib]EFVCWLIAGGPSSGAPPPS-NH2 (linker 17-24 via C20L5A; not fully specified; reading uncertain) [mCMV268 (27I, C(17-24)-C20L5A)]
- EC50 of receptor-mediated cAMP synthesis, GIPR (nM), 02/19 [1]: 0.05 nM
- EC50 of receptor-mediated cAMP synthesis, GIPR (nM), 03/25 [1]: 0.04 nM
- EC50 of receptor-mediated cAMP synthesis, GIPR (nM), 03/26 [1]: 0.03 nM
- EC50 of receptor-mediated cAMP synthesis, GIPR (nM), average [1]: 0.04 nM
- In Vitro Potency GLP1R EC50 [nM], Mouse [2]: 0.26 nM
- In Vitro Potency GLP1R EC50 [nM], Cyno [3]: 0.22 nM
- In Vitro Potency GLP1R EC50 [nM], Dog [4]: 1.48 nM
- In Vitro Potency GIPR EC50 [nM], Mouse [5]: 0.26 nM
- In Vitro Potency GIPR EC50 [nM], Cyno [6]: 0.16 nM
